Test results taken from US9403896B2, “Serpin-finger fusion polypeptide” (Hoffmann-La Roche Inc., priority 2010, dated 2016).
Read-outs that look alike come from different tables or passages of the source.

B1: FP-3: SEQ ID NO: 78=GR+SEQ ID NO: 83+SEQ ID NO: 50+SEQ ID NO: 40; serpin-finger, linker, T-2635 (protein)
chain: GKSGTEAAGAMFLEAIPMSGGGGSGGGGSGGGGTTWEAWDRAIAEYAARIEALIRAAQEQQERNEAALREL
B2: FP-1: SEQ ID NO: 76=GR+SEQ ID NO: 05+SEQ ID NO: 52+SEQ ID NO: 37; serpin-finger, linker, T-1249 (protein)
chain: GRTEAAGAMFLEAIPMSGGGGSGGGGSGGGGTWQEWEQKITALLEQAQIQQEKNEYELQKLDKWASLWEWF

Experiments:
HIV HR1 polypeptide = molecular target: T1, HIV HR1 polypeptide (Human immunodeficiency virus type 1 group M subtype B, UniProt P04578); assay: biochemical; type: binding; settings: for kon: read-out: ka
T1 construct: made in house; host or cells: chemical peptide synthesis (no expression host)
T1 sequence (P04578 540-590): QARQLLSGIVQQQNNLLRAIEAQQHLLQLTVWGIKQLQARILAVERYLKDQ
Experimental: All surface plasmon resonance measurements were performed on a BIAcore 3000 instrument (GE Healthcare Biosciences AB, Sweden) at 25° C. Chemically prepared HIV HR1 peptide (heptad repeat 1; Biotin-[…] Q-NH2 (SEQ ID NO: 87)) was immobilized on a CM5 biosensor chip according to the manufacturer instructions (GE Healthcare Biosciences AB, Sweden). The fusion polypeptide was diluted to a concentration of 25 nM and injected over 5 minutes at a flow rate of 50 μl/min. Thereafter the protein complex obtained from different combined fractions was diluted into the same buffer to concentrations of 250 nM and 80 nM and injected over 5 minutes at a flow rate of 50 μl/min. Afterwards the sensor chip was regenerated for 1 minute with PBS, pH 8.0, 0.005% (v/v) Tween 20. Data analysis was performed with the BIAevaluation software (BIAcore, Sweden) (see FIG. 4).

[1] = system: HIV cell-cell-membrane fusion; assay: cell-cell-fusion-assay (CCF-assay), antiviral activity; type: cell-based
Source text: The amino acid sequence of fusion polypeptide FP-1 is SEQ ID NO: 76, the amino acid sequence of fusion polypeptide FP-2 is SEQ ID NO: 77, and the amino acid sequence of fusion polypeptide FP-3 is SEQ ID NO: 78. In the fusion polypeptides FP-1 to FP-3 the same serpin-finger polypeptide is conjugated to different HIV fusion inhibitor polypeptides. The fusion polypeptide FP-3 is expressed better in E. coli than FP-2 and in turn FP-2 is expressed better than the fusion polypeptide FP-1. The same sequence of the fusion polypeptides is obtained for the binding to target HIV HR-1 polypeptide (FP-3>FP-2>FP-1) in a BIAcore assay. The same sequence has also been found for the anti-viral activity in a cell-cell-fusion-assay (CCF-assay).

[2] = BIAcore 3000, 25° C., HR1 peptide immobilized on CM5 chip

Molecule | kon (HIV HR1 polypeptide; [2]) [M⁻¹ s⁻¹] | kd (HIV HR1 polypeptide; [2]) [s⁻¹] | kon (HIV HR1 polypeptide) [M⁻¹ s⁻¹] | KA (HIV HR1 polypeptide) [M⁻¹] | Kd (HIV HR1 polypeptide) [nM] | ka (HIV HR1 polypeptide) [M⁻¹ s⁻¹] | kd (HIV HR1 polypeptide) [s⁻¹] | IC50 [1] [nM]
CC[C@H](C)[C@H](NC(=O)[C@H](CC(C)C)NC(=O)[C@H](CO)NC(=O)[C@H](Cc1c[nH]cn1)NC(=O)[C@@H](NC(=O)[C@H](CC(C)C)NC(=O)[C@H](CO)NC(=O)[C@@H](NC(=O)[C@H](Cc1ccc(O)cc1)NC(=O)[C@H](CC(N)=O)NC(=O)[C@H](CC(N)=O)NC(=O)[C@@H](NC(=O)[C@H](CCC(=O)O)NC(=O)[C@H](CCCNC(=N)N)NC(=O)[C@H](CC(=O)O)NC(=O)[C@H](Cc1c[nH]c2ccccc12)NC(=O)[C@H](CCC(=O)O)NC(=O)[C@H](CCSC)NC(=O)[C@H](Cc1c[nH]c2ccccc12)NC(=O)[C@@H](NC(=O)[C@@H](N)CCSC)[C@@H](C)O)[C@@H](C)CC)[C@@H](C)O)[C@@H](C)CC)C(=O)N[C@@H](CCC(=O)O)C(=O)N[C@@H](CCC(=O)O)C(=O)N[C@@H](CO)C(=O)N[C@@H](CCC(N)=O)C(=O)N[C@@H](CC(N)=O)C(=O)N[C@@H](CCC(N)=O)C(=O)N[C@@H](CCC(N)=O)C(=O)N[C@@H](CCC(=O)O)C(=O)N[C@@H](CCCCN)C(=O)N[C@@H](CC(N)=O)C(=O)N[C@@H](CCC(=O)O)C(=O)N[C@@H](CCC(N)=O)C(=O)N[C@@H](CCC(=O)O)C(=O)N[C@@H](CC(C)C)C(=O)N[C@@H](CC(C)C)C(=O)O [T-651, reference compound] | 1.65e+06 |  |  |  |  |  |  | 
CC[C@H](C)[C@H](NC(=O)[C@H](CCC(N)=O)NC(=O)[C@H](C)NC(=O)[C@H](CCC(N)=O)NC(=O)[C@H](CCC(=O)O)NC(=O)[C@H](CC(C)C)NC(=O)[C@H](CC(C)C)NC(=O)[C@H](C)NC(=O)[C@@H](NC(=O)[C@@H](NC(=O)[C@H](CCCCN)NC(=O)[C@H](CCC(N)=O)NC(=O)[C@H](CCC(=O)O)NC(=O)[C@H](Cc1c[nH]c2ccccc12)NC(=O)[C@H](CCC(=O)O)NC(=O)[C@H](CCC(N)=O)NC(=O)[C@H](Cc1c[nH]c2ccccc12)NC(C)=O)[C@@H](C)CC)[C@@H](C)O)C(=O)N[C@@H](CCC(N)=O)C(=O)N[C@@H](CCC(N)=O)C(=O)N[C@@H](CCC(=O)O)C(=O)N[C@@H](CCCCN)C(=O)N[C@@H](CC(N)=O)C(=O)N[C@@H](CCC(=O)O)C(=O)N[C@@H](Cc1ccc(O)cc1)C(=O)N[C@@H](CCC(=O)O)C(=O)N[C@@H](CC(C)C)C(=O)N[C@@H](CCC(N)=O)C(=O)N[C@@H](CCCCN)C(=O)N[C@@H](CC(C)C)C(=O)N[C@@H](CC(=O)O)C(=O)N[C@@H](CCCCN)C(=O)N[C@@H](Cc1c[nH]c2ccccc12)C(=O)N[C@@H](C)C(=O)N[C@@H](CO)C(=O)N[C@@H](CC(C)C)C(=O)N[C@@H](Cc1c[nH]c2ccccc12)C(=O)N[C@@H](CCC(=O)O)C(=O)N[C@@H](Cc1c[nH]c2ccccc12)C(=O)N[C@@H](Cc1ccccc1)C(N)=O [T-1249, reference compound] |  | 0.00127 |  |  |  |  |  | 
CC[C@H](C)[C@H](NC(=O)[C@H](C)NC(=O)[C@H](CCCNC(=N)N)NC(=O)[C@H](CC(=O)O)NC(=O)[C@H](Cc1c[nH]c2ccccc12)NC(=O)[C@H](C)NC(=O)[C@H](CCC(=O)O)NC(=O)[C@H](Cc1c[nH]c2ccccc12)NC(=O)[C@@H](NC(=O)[C@@H](N)[C@@H](C)O)[C@@H](C)O)C(=O)N[C@@H](C)C(=O)N[C@@H](CCC(=O)O)C(=O)N[C@@H](Cc1ccc(O)cc1)C(=O)N[C@@H](C)C(=O)N[C@@H](C)C(=O)N[C@@H](CCCNC(=N)N)C(=O)N[C@H](C(=O)N[C@@H](CCC(=O)O)C(=O)N[C@@H](C)C(=O)N[C@@H](CC(C)C)C(=O)N[C@H](C(=O)N[C@@H](CCCNC(=N)N)C(=O)N[C@@H](C)C(=O)N[C@@H](C)C(=O)N[C@@H](CCC(N)=O)C(=O)N[C@@H](CCC(=O)O)C(=O)N[C@@H](CCC(N)=O)C(=O)N[C@@H](CCC(N)=O)C(=O)N[C@@H](CCC(=O)O)C(=O)N[C@@H](CCCCN)C(=O)N[C@@H](CC(N)=O)C(=O)N[C@@H](CCC(=O)O)C(=O)N[C@@H](C)C(=O)N[C@@H](C)C(=O)N[C@@H](CC(C)C)C(=O)N[C@@H](CCCNC(=N)N)C(=O)N[C@@H](CCC(=O)O)C(=O)N[C@@H](CC(C)C)C(=O)O)[C@@H](C)CC)[C@@H](C)CC [T-2635, reference compound] |  |  | 1.11e+06 |  |  |  |  | 
FP-2: SEQ ID NO: 77=GR+SEQ ID NO: 82+SEQ ID NO: 75+SEQ ID NO: 13; serpin-finger, linker, T-651 (GRGTEAAGAMFLEAIPMSTTWMEWDKEINNYTSLIHSLIEESQNQQEKNEQELL) |  |  |  | 1.08e+10 | 0.0924 | 1.29e+06 | 0.000119 | 330
B1 |  |  |  | 3.22e+10 | 0.031 | 991000 | 3.07e-05 | 200
B2 |  |  |  | 6.29e+08 | 1.59 | 227000 | 0.000361 | 700
